Measured values as given in publication PMC10760632, “Characterization of the SF3B1–SUGP1 interface reveals how numerous cancer mutations cause mRNA missplicing” (Genes & Development, 2023).

Target: T1, SF3B core complex (human, UniProt O75533 453-1304; Q15393 1-1217; Q9BWJ5 1-86; Q7RTV0 1-98)
T1 construct: SF3B1 C-terminal HEAT domain, residues 453-1304; SF3B3, residues 1-1217; SF3B5, residues 1-86; PHF5A, residues 1-98; SF3B3 carries an N-terminal His6 and a TEV protease cleavage site; no cleavage step is described in the purification; also called SF3B complex; source: Tni insect cells (baculovirus), coexpressed, purified (Ni-NTA, Superdex 200 gel filtration); copies: + + +
Test: SEC; purified SF3B complex and DHX15 (113–795)–SUGP1 (433–645) heterodimer mixed at a molar ratio of 1:5, overnight at 4°C, Superose 6 Increase 10/300 in 20 mM HEPES pH 7.9, 300 mM KCl, 5% glycerol, 5 mM DTT; complex fractions rerun and peak analysed by SDS-PAGE
Conditions: both partners purified

T1 sequence (O75533 453-1304, chain 1 of 4): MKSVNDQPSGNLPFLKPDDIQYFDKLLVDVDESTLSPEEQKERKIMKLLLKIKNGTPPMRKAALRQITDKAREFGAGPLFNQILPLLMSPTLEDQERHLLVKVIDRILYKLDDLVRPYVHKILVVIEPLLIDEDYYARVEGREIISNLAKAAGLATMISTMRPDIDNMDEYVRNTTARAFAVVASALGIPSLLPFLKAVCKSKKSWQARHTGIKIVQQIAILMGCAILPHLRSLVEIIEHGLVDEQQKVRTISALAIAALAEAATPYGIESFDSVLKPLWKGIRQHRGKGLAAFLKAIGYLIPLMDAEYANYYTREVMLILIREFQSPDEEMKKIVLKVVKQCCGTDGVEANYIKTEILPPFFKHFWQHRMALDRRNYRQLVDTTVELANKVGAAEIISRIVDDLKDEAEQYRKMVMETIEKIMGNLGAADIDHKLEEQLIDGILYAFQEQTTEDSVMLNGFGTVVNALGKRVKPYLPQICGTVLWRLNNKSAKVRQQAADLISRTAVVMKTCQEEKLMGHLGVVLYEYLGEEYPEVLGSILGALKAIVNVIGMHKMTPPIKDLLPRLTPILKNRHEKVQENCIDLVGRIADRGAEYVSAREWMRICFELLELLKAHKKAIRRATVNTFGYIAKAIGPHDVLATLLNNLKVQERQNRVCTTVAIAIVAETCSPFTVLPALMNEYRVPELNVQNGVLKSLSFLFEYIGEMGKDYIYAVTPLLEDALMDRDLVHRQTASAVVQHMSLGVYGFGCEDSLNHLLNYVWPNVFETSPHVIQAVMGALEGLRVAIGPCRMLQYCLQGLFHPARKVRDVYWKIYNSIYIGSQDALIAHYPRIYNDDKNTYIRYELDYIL
T1 sequence (Q15393 whole entry, chain 2 of 4, the tested form may be a part): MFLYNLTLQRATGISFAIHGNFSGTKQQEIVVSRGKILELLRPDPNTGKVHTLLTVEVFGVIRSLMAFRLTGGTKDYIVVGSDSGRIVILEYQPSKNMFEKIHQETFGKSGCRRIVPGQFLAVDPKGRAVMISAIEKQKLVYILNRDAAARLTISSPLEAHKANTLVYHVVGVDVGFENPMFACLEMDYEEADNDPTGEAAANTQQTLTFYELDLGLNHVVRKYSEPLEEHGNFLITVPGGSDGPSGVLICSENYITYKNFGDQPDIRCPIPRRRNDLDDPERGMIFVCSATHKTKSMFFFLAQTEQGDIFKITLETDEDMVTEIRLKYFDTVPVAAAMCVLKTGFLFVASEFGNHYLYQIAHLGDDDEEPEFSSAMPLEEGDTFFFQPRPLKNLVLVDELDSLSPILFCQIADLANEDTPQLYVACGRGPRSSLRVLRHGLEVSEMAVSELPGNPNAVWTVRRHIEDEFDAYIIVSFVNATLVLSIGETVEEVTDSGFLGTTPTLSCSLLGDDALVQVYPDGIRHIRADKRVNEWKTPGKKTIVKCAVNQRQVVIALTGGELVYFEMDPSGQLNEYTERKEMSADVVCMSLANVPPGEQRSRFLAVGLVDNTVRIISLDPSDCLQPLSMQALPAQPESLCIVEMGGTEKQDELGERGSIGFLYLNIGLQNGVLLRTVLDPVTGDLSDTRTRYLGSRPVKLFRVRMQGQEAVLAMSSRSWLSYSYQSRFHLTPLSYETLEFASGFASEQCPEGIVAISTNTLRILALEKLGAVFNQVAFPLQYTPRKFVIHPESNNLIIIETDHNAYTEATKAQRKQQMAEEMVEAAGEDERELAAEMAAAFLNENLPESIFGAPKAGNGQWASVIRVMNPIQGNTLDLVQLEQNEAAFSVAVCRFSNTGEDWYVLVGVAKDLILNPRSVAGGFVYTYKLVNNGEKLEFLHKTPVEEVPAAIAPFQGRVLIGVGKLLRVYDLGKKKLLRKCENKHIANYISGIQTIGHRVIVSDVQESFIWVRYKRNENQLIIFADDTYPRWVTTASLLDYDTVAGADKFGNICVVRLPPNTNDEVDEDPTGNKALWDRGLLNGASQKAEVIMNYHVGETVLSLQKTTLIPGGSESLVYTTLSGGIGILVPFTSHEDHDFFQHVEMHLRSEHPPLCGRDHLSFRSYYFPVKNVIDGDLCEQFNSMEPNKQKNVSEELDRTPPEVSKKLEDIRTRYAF
T1 sequence (Q9BWJ5 whole entry, chain 3 of 4, the tested form may be a part): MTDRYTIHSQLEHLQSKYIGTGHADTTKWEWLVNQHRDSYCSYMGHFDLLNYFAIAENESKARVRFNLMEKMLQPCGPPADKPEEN
T1 sequence (Q7RTV0 1-98, chain 4 of 4): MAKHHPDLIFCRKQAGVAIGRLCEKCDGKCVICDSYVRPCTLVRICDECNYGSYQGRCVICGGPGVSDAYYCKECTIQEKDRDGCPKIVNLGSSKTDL

B1: DHX15 (113–795)–SUGP1 (433–645) heterodimer (complex, human)
chain 1: QCINPFTNLPHTPRYYDILKKRLQLPVWEYKDRFTDILVRHQSFVLVGETGSGKTTQIPQWCVEYMRSLPGPKRGVACTQPRRVAAMSVAQRVADEMDVMLGQEVGYSIRFEDCSSAKTILKYMTDGMLLREAMNDPLLERYGVIILDEAHERTLATDILMGVLKEVVRQRSDLKVIVMSATLDAGKFQIYFDNCPLLTIPGRTHPVEIFYTPEPERDYLEAAIRTVIQIHMCEEEEGDLLLFLTGQEEIDEACKRIKREVDDLGPEVGDIKIIPLYSTLPPQQQQRIFEPPPPKKQNGAIGRKVVVSTNIAETSLTIDGVVFVIDPGFAKQKVYNPRIRVESLLVTAISKASAQQRAGRAGRTRPGKCFRLYTEKAYKTEMQDNTYPEILRSNLGSVVLQLKKLGIDDLVHFDFMDPPAPETLMRALELLNYLAALNDDGDLTELGSMMAEFPLDPQLAKMVIASCDYNCSNEVLSITAMLSVPQCFVRPTEAKKAADEAKMRFAHIDGDHLTLLNVYHAFKQNHESVQWCYDNFINYRSLMSADNVRQQLSRIMDRFNLPRRSTDFTSRDYYINIRKALVTGYFMQVAHLERTGHYLTVKDNQVVQLHPSTVLDHKPEWVLYNEFVLTTKNYIRTCTDIKPEWLVKIAPQYYDMSNFPQCEAKRQLDRIIAKLQSKEYSQY
chain 2: GVTELSDAQKKQLKEQQEMQQMYDMIMQHKRAMQDMQLLWEKAVQQHQHGYDSDEEVDSELGTWEHQLRRMEMDKTREWAEQLTKMGRGKHFIGDFLPPDELEKFMETFKALKEGREPDYSEYKEFKLTVENIGYQMLMKMGWKEGEGLGSEGQGIKNPVNKGTTTVDGAGFGIDRPAELSKEDDEYEAFRKRMMLAYRFRPNPLNNPRRPYY
notes: DHX15 (DEAH-box helicase 15), residues 113-795, lacks the N-terminal unstructured region; DHX15 was fused with N-terminal His6, MBP and a TEV protease cleavage site; also called DHX15–SUGP1; DHX15–SUGP1 heterodimer; source: Tni insect cells (baculovirus), coexpressed, purified as in Zhang et al. 2022a
B1: binds.
